According to PMC12048488:

Molecular target: HTT-Q20 (endogenous knock-in huntingtin: mouse Htt with humanized HTT exon 1, normal polyQ) (human | mouse)
Test: affinity purification with mass spectrometry; evaluation of antibodies: IP-MS from whole brain and striatum lysates of 8-week Q20 and Q140 mice with EPR5526, 2B7-4C9, 4E10-3E10 or 138-139 antibodies against mIgG controls

B1: HAP40 (F8a1), Huntingtin-associated protein 40 (natural protein)
chain: MAAGSASSLGGGAWPGSEAGDFLARYRQVSNKLKKRFLRKPNVAEAGEQFAQLARELRAQECLPYAAWCQLAVARCQQALFHGPGEALALTEAARLFLRQECDARQRLGCPAAYGEPLQAAASALGAAVRLHLELGQPAAAAALCLELAAALRAVGQPAAAAGHFQRAAQLHLPLMPLAALQALGDAASCQLLARDYTGALALFTRMQRLAREHGGHPVQQLELLPQPPSGPQPPLSGPQPRPVLGSTLPLPQPPDHAPGSVAPSPGTLGAFADVLVRCEVSRVLLLLLLQPPPAKLLPEHAQTLEKYSWEAFDGHGQDTSGQLPEELFLLLQSLVMAAQEKDTEGIKKLQVEMWPLLTAEQNHLLHLVLQETISPSGQGV
stoichiometry N (HTT:HAP40 ratio): 1
